Laboratory results reported in publication PMC12416549 (2024).
Where a chain is given by its changes, count along the chain named. Numbers in names are those of the source.

T1: TNFR1 (Homo sapiens, UniProt P19438)
T1 chain: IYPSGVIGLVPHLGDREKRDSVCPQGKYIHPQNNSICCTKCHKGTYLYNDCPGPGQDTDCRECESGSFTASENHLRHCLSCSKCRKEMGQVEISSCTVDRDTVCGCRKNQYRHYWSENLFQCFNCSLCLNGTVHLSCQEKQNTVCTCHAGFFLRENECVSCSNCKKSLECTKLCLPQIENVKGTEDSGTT

B1: S1I (designed binder)
chain: IMEEEVEKAAKEYEKKKKEAIEKHLEKLKAKDKEAAERFLKELEEAAKEYAKDEAKTMSEEEAKRRAKKYKEKVLLSELSEEEQKEIKEAEEKLVRTILKYVEEAAK
B2: E37R (designed binder)
chain: B1 chain with I1S, E37R
B3: L43S (designed binder)
chain: B1 chain with I1S, L43S
B4: E14M (designed binder)
chain: B1 chain with I1S, E14M
B5: A105K (designed binder)
chain: B1 chain with I1S, A105K
B6: E54A (designed binder)
chain: B1 chain with I1S, E54A
B7: K17S (designed binder)
chain: B1 chain with I1S, K17S
B8: A105H (designed binder)
chain: B1 chain with I1S, A105H
B9: E4R (designed binder)
chain: B1 chain with I1S, E4R
B10: K48R (designed binder)
chain: B1 chain with I1S, K48R
B11: I98H (designed binder)
chain: B1 chain with I1S, I98H
B12: K93C (designed binder)
chain: B1 chain with I1S, K93C
B13: I87R (designed binder)
chain: B1 chain with I1S, I87R
B14: E4I (designed binder)
chain: B1 chain with I1S, E4I
B15: E89L (designed binder)
chain: B1 chain with I1S, E89L
B16: E72V (designed binder)
chain: B1 chain with I1S, E72V
B17: K68E (designed binder)
chain: B1 chain with I1S, K68E
B18: A9I (designed binder)
chain: B1 chain with I1S, A9I
B19: K18C (designed binder)
chain: B1 chain with I1S, K18C
B20: K71T (designed binder)
chain: B1 chain with I1S, K71T
B21: R66V (designed binder)
chain: B1 chain with I1S, R66V
B22: E86W (designed binder)
chain: B1 chain with I1S, E86W
B23: E45H (designed binder)
chain: B1 chain with I1S, E45H
B24: D32G (designed binder)
chain: B1 chain with I1S, D32G
B25: V102M (designed binder)
chain: B1 chain with I1S, V102M
B26: R66P (designed binder)
chain: B1 chain with I1S, R66P
B27: K85H (designed binder)
chain: B1 chain with I1S, K85H
B28: E92Y (designed binder)
chain: B1 chain with I1S, E92Y
B29: V95S (designed binder)
chain: B1 chain with I1S, V95S
B30: E4P (designed binder)
chain: B1 chain with I1S, E4P
B31: E12Y (designed binder)
chain: B1 chain with I1S, E12Y
B32: E54W (designed binder)
chain: B1 chain with I1S, E54W
B33: L99E (designed binder)
chain: B1 chain with I1S, L99E
B34: I98Y (designed binder)
chain: B1 chain with I1S, I98Y
B35: K85I (designed binder)
chain: B1 chain with I1S, K85I
B36: F39A (designed binder)
chain: B1 chain with I1S, F39A
B37: A63T (designed binder)
chain: B1 chain with I1S, A63T
B38: A55E (designed binder)
chain: B1 chain with I1S, A55E
B39: E26P (designed binder)
chain: B1 chain with I1S, E26P
B40: V6N (designed binder)
chain: B1 chain with I1S, V6N
B41: Y50W (designed binder)
chain: B1 chain with I1S, Y50W
B42: T57K (designed binder)
chain: B1 chain with I1S, T57K
B43: S77P (designed binder)
chain: B1 chain with I1S, S77P
B44: V95T (designed binder)
chain: B1 chain with I1S, V95T
B45: A47K (designed binder)
chain: B1 chain with I1S, A47K
B46: K73C (designed binder)
chain: B1 chain with I1S, K73C
B47: V74G (designed binder)
chain: B1 chain with I1S, V74G
B48: K16Q (designed binder)
chain: B1 chain with I1S, K16Q
B49: S1H (designed binder)
chain: B1 chain with I1H
B50: E82L (designed binder)
chain: B1 chain with I1S, E82L
B51: A20H (designed binder)
chain: B1 chain with I1S, A20H
B52: H24V (designed binder)
chain: B1 chain with I1S, H24V
B53: E82H (designed binder)
chain: B1 chain with I1S, E82H
B54: K31R (designed binder)
chain: B1 chain with I1S, K31R
B55: K33V (designed binder)
chain: B1 chain with I1S, K33V

Molecular target: T1, TNFR1
Assay: yeast display SC50

Row | Binder | apparent Kd (screen)
1 | B1 | 0.79 nM
2 | B2 | 0.446 nM
3 | B3 | 0.49 nM
4 | B4 | 12.5 nM
5 | B5 | 1.86 nM
6 | B6 | 3.63 nM
7 | B7 | 1.27 nM
8 | B8 | 2.05 nM
9 | B9 | 1.69 nM
10 | B10 | 0.593 nM
11 | B11 | 5.84 nM
12 | B12 | 1.54 nM
13 | B13 | 16.7 nM
14 | B14 | 1.86 nM
15 | B15 | 1.86 nM
16 | B16 | 1.27 nM
17 | B17 | 1.4 nM
18 | B18 | 0.446 nM
19 | B19 | 0.869 nM
20 | B20 | 0.49 nM
21 | B21 | 18.3 nM
22 | B22 | 1.54 nM
23 | B23 | 3.3 nM
24 | B24 | 0.593 nM
25 | B25 | 0.49 nM
26 | B26 | 0.593 nM
27 | B27 | 0.869 nM
28 | B28 | 13.8 nM

Row | Binder | apparent Kd (screen)
29 | B29 | 13.8 nM
30 | B30 | 3.3 nM
31 | B31 | 0.593 nM
32 | B32 | 0.869 nM
33 | B33 | 12.5 nM
34 | B34 | 5.84 nM
35 | B35 | 0.539 nM
36 | B36 | 3 nM
37 | B37 | 16.7 nM
38 | B38 | 1.27 nM
39 | B39 | 22.2 nM
40 | B40 | 2.73 nM
41 | B41 | 7.07 nM
42 | B42 | 0.446 nM
43 | B43 | 11.4 nM
44 | B44 | 13.8 nM
45 | B45 | 0.49 nM
46 | B46 | 24.4 nM
47 | B47 | 1.05 nM
48 | B48 | 0.718 nM
49 | B49 | 1.4 nM
50 | B50 | 0.718 nM
51 | B51 | 0.446 nM
52 | B52 | 1.05 nM
53 | B53 | 0.446 nM
54 | B54 | 0.49 nM
55 | B55 | 0.446 nM
